Assay results as given in the supplement of paper PMC10567573.

B1: KRT71 (parent)
chain: FGSRSLYSLGGVRSLNVASGSGKS
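Further: lentivirally expressed fusions sorted by FACS into six bins by GFP to DsRed ratio, PSI derived from sequencing read proportions per bin multiplied by bin number.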

Variants of: B1
Experiment: protein stability index of a GFP-peptide fusion (GPS, HEK-293T) (PSI 1-6); higher = more stable
Conditions: c terminus: a fixed tail appended
FGYRSLYSLGGVRSLNVASGSGKS [S3Y] gave a protein stability index of 2.7.
Work on FGSASLYSLGGVRSLNVASGSGKS [R4A] yielded a protein stability index of 2.71.
With FGSCSLYSLGGVRSLNVASGSGKS [R4C] the protein stability index was 2.35.
Work on FGSDSLYSLGGVRSLNVASGSGKS [R4D] yielded a protein stability index of 2.44.
Variant FGSESLYSLGGVRSLNVASGSGKS [R4E] has a protein stability index of 2.44.
In the case of FGSFSLYSLGGVRSLNVASGSGKS [R4F], the protein stability index is reported as 1.58.
FGSGSLYSLGGVRSLNVASGSGKS [R4G] showed a protein stability index of 2.56.
Work on FGSHSLYSLGGVRSLNVASGSGKS [R4H] yielded a protein stability index of 2.15.
For FGSISLYSLGGVRSLNVASGSGKS [R4I], the protein stability index was 1.7.
In the case of FGSKSLYSLGGVRSLNVASGSGKS [R4K], the protein stability index is reported as 2.14.
In the case of FGSLSLYSLGGVRSLNVASGSGKS [R4L], the protein stability index is reported as 1.75.
Work on FGSMSLYSLGGVRSLNVASGSGKS [R4M] yielded a protein stability index of 1.88.
FGSNSLYSLGGVRSLNVASGSGKS [R4N] showed a protein stability index of 2.12.
FGSPSLYSLGGVRSLNVASGSGKS [R4P] gave a protein stability index of 1.35.
Work on FGSQSLYSLGGVRSLNVASGSGKS [R4Q] yielded a protein stability index of 2.5.
With FGSSSLYSLGGVRSLNVASGSGKS [R4S] the protein stability index was 2.31.
In the case of FGSTSLYSLGGVRSLNVASGSGKS [R4T], the protein stability index is reported as 2.
FGSVSLYSLGGVRSLNVASGSGKS [R4V] gave a protein stability index of 1.52.
FGSWSLYSLGGVRSLNVASGSGKS [R4W] showed a protein stability index of 1.62.
Variant FGSYSLYSLGGVRSLNVASGSGKS [R4Y] has a protein stability index of 2.77.
In the case of FGSRALYSLGGVRSLNVASGSGKS [S5A], the protein stability index is reported as 2.35.
Variant FGSRCLYSLGGVRSLNVASGSGKS [S5C] has a protein stability index of 1.5.
For FGSRDLYSLGGVRSLNVASGSGKS [S5D], the protein stability index was 2.31.
With FGSRELYSLGGVRSLNVASGSGKS [S5E] the protein stability index was 2.77.
With FGSRFLYSLGGVRSLNVASGSGKS [S5F] the protein stability index was 1.95.
In the case of FGSRGLYSLGGVRSLNVASGSGKS [S5G], the protein stability index is reported as 1.6.
FGSRHLYSLGGVRSLNVASGSGKS [S5H] gave a protein stability index of 2.24.
FGSRILYSLGGVRSLNVASGSGKS [S5I] gave a protein stability index of 2.19.
FGSRKLYSLGGVRSLNVASGSGKS [S5K] gave a protein stability index of 2.65.
In the case of FGSRLLYSLGGVRSLNVASGSGKS [S5L], the protein stability index is reported as 2.15.
In the case of FGSRMLYSLGGVRSLNVASGSGKS [S5M], the protein stability index is reported as 1.62.
Work on FGSRNLYSLGGVRSLNVASGSGKS [S5N] yielded a protein stability index of 1.99.
With FGSRPLYSLGGVRSLNVASGSGKS [S5P] the protein stability index was 2.91.
Variant FGSRQLYSLGGVRSLNVASGSGKS [S5Q] has a protein stability index of 2.16.
Work on FGSRRLYSLGGVRSLNVASGSGKS [S5R] yielded a protein stability index of 2.77.
With FGSRTLYSLGGVRSLNVASGSGKS [S5T] the protein stability index was 1.64.
For FGSRVLYSLGGVRSLNVASGSGKS [S5V], the protein stability index was 1.9.
Work on FGSRWLYSLGGVRSLNVASGSGKS [S5W] yielded a protein stability index of 2.33.
FGSRYLYSLGGVRSLNVASGSGKS [S5Y] gave a protein stability index of 1.36.
With FGSRSAYSLGGVRSLNVASGSGKS [L6A] the protein stability index was 1.67.
FGSRSCYSLGGVRSLNVASGSGKS [L6C] gave a protein stability index of 2.04.
Work on FGSRSDYSLGGVRSLNVASGSGKS [L6D] yielded a protein stability index of 3.7.
In the case of FGSRSEYSLGGVRSLNVASGSGKS [L6E], the protein stability index is reported as 3.14.
In the case of FGSRSFYSLGGVRSLNVASGSGKS [L6F], the protein stability index is reported as 3.13.
With FGSRSGYSLGGVRSLNVASGSGKS [L6G] the protein stability index was 1.77.
With FGSRSHYSLGGVRSLNVASGSGKS [L6H] the protein stability index was 2.33.
With FGSRSIYSLGGVRSLNVASGSGKS [L6I] the protein stability index was 2.29.
FGSRSKYSLGGVRSLNVASGSGKS [L6K] showed a protein stability index of 2.91.
Variant FGSRSMYSLGGVRSLNVASGSGKS [L6M] has a protein stability index of 1.93.
With FGSRSNYSLGGVRSLNVASGSGKS [L6N] the protein stability index was 2.76.
Work on FGSRSPYSLGGVRSLNVASGSGKS [L6P] yielded a protein stability index of 1.74.
Work on FGSRSQYSLGGVRSLNVASGSGKS [L6Q] yielded a protein stability index of 2.62.
Work on FGSRSRYSLGGVRSLNVASGSGKS [L6R] yielded a protein stability index of 2.65.
FGSRSSYSLGGVRSLNVASGSGKS [L6S] showed a protein stability index of 2.13.
FGSRSTYSLGGVRSLNVASGSGKS [L6T] showed a protein stability index of 3.13.
Variant FGSRSVYSLGGVRSLNVASGSGKS [L6V] has a protein stability index of 1.62.
With FGSRSWYSLGGVRSLNVASGSGKS [L6W] the protein stability index was 2.94.
For FGSRSYYSLGGVRSLNVASGSGKS [L6Y], the protein stability index was 1.48.
FGSRSLASLGGVRSLNVASGSGKS [Y7A] showed a protein stability index of 3.46.
In the case of FGSRSLCSLGGVRSLNVASGSGKS [Y7C], the protein stability index is reported as 2.48.
Variant FGSRSLDSLGGVRSLNVASGSGKS [Y7D] has a protein stability index of 3.53.
With FGSRSLESLGGVRSLNVASGSGKS [Y7E] the protein stability index was 4.17.
With FGSRSLFSLGGVRSLNVASGSGKS [Y7F] the protein stability index was 3.01.
Work on FGSRSLGSLGGVRSLNVASGSGKS [Y7G] yielded a protein stability index of 2.81.
For FGSRSLHSLGGVRSLNVASGSGKS [Y7H], the protein stability index was 2.98.
For FGSRSLISLGGVRSLNVASGSGKS [Y7I], the protein stability index was 2.32.
FGSRSLKSLGGVRSLNVASGSGKS [Y7K] gave a protein stability index of 3.02.
FGSRSLLSLGGVRSLNVASGSGKS [Y7L] gave a protein stability index of 1.6.
FGSRSLMSLGGVRSLNVASGSGKS [Y7M] gave a protein stability index of 2.54.
FGSRSLNSLGGVRSLNVASGSGKS [Y7N] showed a protein stability index of 3.26.
In the case of FGSRSLPSLGGVRSLNVASGSGKS [Y7P], the protein stability index is reported as 3.75.
FGSRSLQSLGGVRSLNVASGSGKS [Y7Q] gave a protein stability index of 3.91.
In the case of FGSRSLRSLGGVRSLNVASGSGKS [Y7R], the protein stability index is reported as 3.57.
With FGSRSLSSLGGVRSLNVASGSGKS [Y7S] the protein stability index was 3.89.
Variant FGSRSLTSLGGVRSLNVASGSGKS [Y7T] has a protein stability index of 2.55.
FGSRSLVSLGGVRSLNVASGSGKS [Y7V] gave a protein stability index of 2.83.
In the case of FGSRSLWSLGGVRSLNVASGSGKS [Y7W], the protein stability index is reported as 2.05.
Variant FGSRSLYALGGVRSLNVASGSGKS [S8A] has a protein stability index of 2.17.
In the case of FGSRSLYCLGGVRSLNVASGSGKS [S8C], the protein stability index is reported as 2.1.
FGSRSLYDLGGVRSLNVASGSGKS [S8D] showed a protein stability index of 3.44.
For FGSRSLYELGGVRSLNVASGSGKS [S8E], the protein stability index was 2.75.
With FGSRSLYFLGGVRSLNVASGSGKS [S8F] the protein stability index was 1.21.
FGSRSLYGLGGVRSLNVASGSGKS [S8G] gave a protein stability index of 2.
FGSRSLYHLGGVRSLNVASGSGKS [S8H] showed a protein stability index of 2.89.
Variant FGSRSLYILGGVRSLNVASGSGKS [S8I] has a protein stability index of 1.54.
For FGSRSLYKLGGVRSLNVASGSGKS [S8K], the protein stability index was 2.14.
Work on FGSRSLYLLGGVRSLNVASGSGKS [S8L] yielded a protein stability index of 2.2.
In the case of FGSRSLYMLGGVRSLNVASGSGKS [S8M], the protein stability index is reported as 1.38.
Variant FGSRSLYNLGGVRSLNVASGSGKS [S8N] has a protein stability index of 2.4.
Work on FGSRSLYPLGGVRSLNVASGSGKS [S8P] yielded a protein stability index of 1.72.
In the case of FGSRSLYQLGGVRSLNVASGSGKS [S8Q], the protein stability index is reported as 1.72.
FGSRSLYRLGGVRSLNVASGSGKS [S8R] showed a protein stability index of 1.69.
FGSRSLYTLGGVRSLNVASGSGKS [S8T] gave a protein stability index of 1.89.
With FGSRSLYVLGGVRSLNVASGSGKS [S8V] the protein stability index was 2.23.
